The labels stand for the following.
B2: TplEi (natural protein)
chain: CTSFSSSRSSSMDKTGWITHCFGRFLIDLPPDAVINAGYYLWGDRIEYLDDKPTELAARVDRLEQEWRTQRHKSKGNMFLRKIDFGNESVGLLSWSSEVASKTYLLDTYVTSKPTWHVYRWKGKVSVDREQHAVEISRALARNLRSRAPKEIPSEPGFCIDHAYIAGDSFQVERFGVGVTFPEHPGARFEFRSSTGAELNSLLERVDGFVQNMLSTFAGMETLRKGKHPVGSLPGEEYLVAGSDKGQRGYTFMWEVQGKEESLTEPNLTAGLAVLERSNENGKPPPPAFKSDKEALELWDTIVDSIRVRPTSSSPRGGNAGPSPAPKPATPGGQTLGDHYVYEEFLSSLKPKDSWLDDL

Targets include G98A; I88A; L91A.
Holding throughout (assay): ITC
In the test “TplEi” the target is B2.

These results are taken from article PMC5611513 (2017).

B1: B peptides (“L” peptide, TplE 82-108 plus EQ) (peptide)
peptide: Ac-DDLFASIGALWTWAWRGPKARQELLKAEQ-NH2
In the case of B1, the Ka with TplEi was found to be 2.09e+06 M⁻¹.
As for B2, the Kd with G98A was 1.31 µM; in the test with I88A, 4.8 µM; with L91A it was 3.7 µM.

B3: A peptides (“L” peptide, TplE 82-108 plus EQVEVDD) (peptide)
peptide: Ac-DDLFASIGALWTWAWRGPKARQELLKAEQVEVDD-NH2
B3 had a Ka with TplEi of 7.98e+06 M⁻¹.
